T1: recombinant human CD123-Fc (human, UniProt P26951 19-305)
T1 construct: not shown: Fc part of CD123-Fc
T1 sequence: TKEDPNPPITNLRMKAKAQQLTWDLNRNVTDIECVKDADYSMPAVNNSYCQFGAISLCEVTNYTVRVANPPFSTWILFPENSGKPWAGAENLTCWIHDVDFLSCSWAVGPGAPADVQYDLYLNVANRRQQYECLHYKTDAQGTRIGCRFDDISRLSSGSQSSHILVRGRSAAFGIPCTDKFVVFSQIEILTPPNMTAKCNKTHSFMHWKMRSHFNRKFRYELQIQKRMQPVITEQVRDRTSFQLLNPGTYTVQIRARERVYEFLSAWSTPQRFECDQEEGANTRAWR

B1: SEQ ID NO: 569 (designed binder)
chain: MGSWNEFVERLSAIDHRLWALGGSEAELADFEQQIAEFEIHLQEYKGKGNPEVEALDFEADAIFDELLAYRHN
notes: D domain, on phage
B2: SEQ ID NO: 570 (designed binder)
chain: MGSWSEFVDRLDAIFDRLWALGGSEAELAWFEDTIAHFEWNLQEYKGKGNPEVEALNGEADAITDELHAYRHN
notes: D domain, on phage
B3: SEQ ID NO: 571 (designed binder)
chain: MGSWAEFDSRLDAIAQRLFALGGSEAELAHFEDFIAQFEYSLQEYKGKGNPEVEALSNEADAIFNELKAYRHN
notes: D domain, on phage
B4: SEQ ID NO: 572 (designed binder)
chain: MGSWAEFDSRLIAIFDRLWALGGSEAELAWFEDDIAQFEQHLQAYKGKGNPEVEALRQEADAITFELKAYRHN
notes: D domain, on phage
B5: SEQ ID NO: 573 (designed binder)
chain: MGSWTEFEERLEAIWDRLYALGGSEAELAAFEWDIAYFEDGLQEYKGKGNPEVEALFMEAEAIIRELKAYRHN
notes: D domain, on phage
B6: SEQ ID NO: 574 (designed binder)
chain: MGSWYEFEDRLAAIWDRLNALGGSEAELAIFEWDIAWFEEGLQEYKGKGNPEVEALKHEASAIQTELFAYRHN
notes: D domain, on phage
B7: SEQ ID NO: 575 (designed binder)
chain: MGSWLEFESRLWAIWDRLDALGGSEAELAHFEQDIADFEMSLQEYKGKGNPEVEALIREAEAIETELYAYRHN
notes: D domain, on phage
B8: SEQ ID NO: 576 (designed binder)
chain: MGSWMEFEDRLIAIWARLDALGGSEAELAWFEADIADFEESLQEYKGKGNPEVEALIFEAIAINKELMAYRHN
notes: D domain, on phage
B9: SEQ ID NO: 577 (designed binder)
chain: MGSWFEFTIRLEAIQDRLDALGGSEAELAWFEWDIAEFEEGLQFYKGKGNPEVEALHTEADAIMNELVAYRHN
notes: D domain, on phage
B10: SEQ ID NO: 578 (designed binder)
chain: MGSWYEFVSRLDAIEYRLWALGGSEAELAWFEWDIADFEQGLQFYKGKGNPEVEALAQEANAIGSELTAYRHN
notes: D domain, on phage
B11: SEQ ID NO: 579 (designed binder)
chain: MGSWEEFDYRLYAIQDRLYALGGSEAELAFFEWEIADFEHMLQMYKGKGNPEVEALFQEADAIDAELHAYRHN
notes: D domain, on phage
B12: SEQ ID NO: 580 (designed binder)
chain: MGSWIEFFHRLDAIQDRLDALGGSEAELAYFEWAIADFEHMLQLYKGKGNPEVEALQFEAFAIEGELYAYRHN
notes: D domain, on phage
B13: SEQ ID NO: 581 (designed binder)
chain: MGSWYEFSSRLNAIDDRLWALGGSEAELAYFETDIADFESLLQWYKGKGNPEVEALLNEADAIDYELYAYRHN
notes: D domain, on phage
B14: SEQ ID NO: 582 (designed binder)
chain: MGSWFEFEYRLDAIIDRLFALGGSEAELAEFESMIANFEYSLQEYKGKGNPEVEALYFEADAIVDELTAYRHN
notes: D domain, on phage
B15: SEQ ID NO: 583 (designed binder)
chain: MGSWLEFEYRLDAIYDRLFALGGSEAELAAFEQDIADFEKYLQYYKGKGNPEVEALWEEADAIMWELFAYRHN
notes: D domain, on phage
B16: SEQ ID NO: 584 (designed binder)
chain: MGSWHEFEERLMAIEDRLWALGGSEAELAEFEQWIALFEYDLQEYKGKGNPEVEALGMEAFAINNELSAYRHN
notes: D domain, on phage
B17: SEQ ID NO: 585 (designed binder)
chain: MGSWYEFEERLDAIEDRLIALGGSEAELAIFEDIIAFFEQDLQYYKGKGNPEVEALEMEAEAISIELDAYRHN
notes: D domain, on phage
B18: SEQ ID NO: 586 (designed binder)
chain: MGSWHEFEKRLYAIEDRLIALGGSEAELAWFEDSIAWFEWDLQMYKGKGNPEVEALNEEADAIYQELDAYRHN
notes: D domain, on phage
B19: SEQ ID NO: 587 (designed binder)
chain: MGSWIEFEDRLDAITDRLWALGGSEAELAEFEHQIAFFEEDLQWYKGKGNPEVEALHMEAEAIMEELGAYRHN
notes: D domain, on phage
B20: SEQ ID NO: 588 (designed binder)
chain: MGSWMEFEDRLMAIVDRLWALGGSEAELADFEWNIAMFEEELQWYKGKGNPEVEALGDEAEAIEWELYAYRHN
notes: D domain, on phage
B21: SEQ ID NO: 589 (designed binder)
chain: MGSWEEFEDRLFAIDSRLWALGGSEAELAEFENIIASFEEVLQEYKGKGNPEVEALSVEAFAIDRELGAYRHN
notes: D domain, on phage
B22: SEQ ID NO: 590 (designed binder)
chain: MGSWEEFLFRLEAIQDRLWALGGSEAELAWFEYEIASFEDVLQSYKGKGNPEVEALSTEAKAIDYELFAYRHN
notes: D domain, on phage
B23: SEQ ID NO: 591 (designed binder)
chain: MGSWVEFDNRLFAIDERLWALGGSEAELAWFEEEIASFEDNLQKYKGKGNPEVEALQLEAFAIMEELDAYRHN
notes: D domain, on phage
B24: SEQ ID NO: 592 (designed binder)
chain: MGSWFEFDDRLEAIFDRLWALGGSEAELAMFEFAIAEFEDALQEYKGKGNPEVEALYEEAVAIDEELYAYRHN
notes: D domain, on phage
B25: SEQ ID NO: 593 (designed binder)
chain: MGSWFEFDARLMAINDRLWALGGSEAELAAFEYHIALFEDQLQMYKGKGNPEVEALTLEAVAINEELWAYRHN
notes: D domain, on phage
B26: SEQ ID NO: 594 (designed binder)
chain: MGSWVEFDSRLAAIDYRLEALGGSEAELAWFEYTIANFEHTLQMYKGKGNPEVEALVYEAHAIATELQAYRHN
notes: D domain, on phage
B27: SEQ ID NO: 595 (designed binder)
chain: MGSWTEFDERLDAIDWRLEALGGSEAELAWFEGDIALFEQYLQVYKGKGNPEVEALMEEADAIKAELDAYRHN
notes: D domain, on phage
B28: SEQ ID NO: 596 (designed binder)
chain: MGSWIEFDERLDAIDFRLWALGGSEAELAWFEGWIAEFESDLQLYKGKGNPEVEALNEEANAIFHELSAYRHN
notes: D domain, on phage
B29: SEQ ID NO: 597 (designed binder)
chain: MGSWWEFDSRLDAIDFRLWALGGSEAELAWFEVEIADFEDWLQLYKGKGNPEVEALWHEADAIVTELYAYRHN
notes: D domain, on phage
B30: SEQ ID NO: 598 (designed binder)
chain: MGSWYEFDERLDAIFDRLWALGGSEAELAYFEQVIATFEKTLQRYKGKGNPEVEALDTEAKAISWELDAYRHN
notes: D domain, on phage
B31: SEQ ID NO: 599 (designed binder)
chain: MGSWYEFQERLDAIDSRLWALGGSEAELAWFEYTIAEFEKELQMYKGKGNPEVEALGTEAVAISEELMAYRHN
notes: D domain, on phage
B32: SEQ ID NO: 600 (designed binder)
chain: MGSWEEFEDRLWAIDGRLYALGGSEAELAWFEQWIATFEEDLQDYKGKGNPEVEALEYEASAIFEELEAYRHN
notes: D domain, on phage
B33: SEQ ID NO: 601 (designed binder)
chain: MGSWFEFGDRLEAIDERLYALGGSEAELAQFEWWIAEFEHHLQDYKGKGNPEVEALEYEADAIWGELHAYRHN
notes: D domain, on phage
B34: SEQ ID NO: 602 (designed binder)
chain: MGSWFEFNDRLDAISERLSALGGSEAELAYFEWQIAVFEKTLQNYKGKGNPEVEALTLEANAIFEELEAYRHN
notes: D domain, on phage
B35: SEQ ID NO: 603 (designed binder)
chain: MGSWVEFMDRLEAIEERLSALGGSEAELAFFEWEIAEFEEHLQVYKGKGNPEVEALEWEALAITEELAAYRHN
notes: D domain, on phage
B36: SEQ ID NO: 604 (designed binder)
chain: MGSWIEFMDRLWAIDQRLWALGGSEAELAWFEEEIAWFEEELQVYKGKGNPEVEALEWEATAISEELWAYRHN
notes: D domain, on phage
B37: SEQ ID NO: 605 (designed binder)
chain: MGSWEEFNWRLRAIDERLFALGGSEAELAWFEYDIAEFEEQLQVYKGKGNPEVEALRVEAAAIAEELYAYRHN
notes: D domain, on phage
B38: SEQ ID NO: 606 (designed binder)
chain: MGSWWEFEIRLDAIDERLWALGGSEAELAWFEQSIAFFENDLQVYKGKGNPEVEALRWEANAIIEELFAYRHN
notes: D domain, on phage
B39: SEQ ID NO: 607 (designed binder)
chain: MGSWYEFEWRLDAIDRRLWALGGSEAELADFEEEIADFEWMLQNYKGKGNPEVEALVDEASAIQTELWAYRHN
notes: D domain, on phage
B40: SEQ ID NO: 608 (designed binder)
chain: MGSWYEFVYRLRAIDERLDALGGSEAELAMFEFEIAFFEDQLQRYKGKGNPEVEALVDEAQAIDFELFAYRHN
notes: D domain, on phage
B41: SEQ ID NO: 609 (designed binder)
chain: MGSWWEFEDRLYAIDDRLWALGGSEAELAQFEREIAQFEIWLQEYKGKGNPEVEALDDEATAINSELFAYRHN
notes: D domain, on phage
B42: SEQ ID NO: 610 (designed binder)
chain: MGSWDEFEFRLEAIDSRLWALGGSEAELAVFEYEIAQFEFMLQEYKGKGNPEVEALGMEAWAIENELFAYRHN
notes: D domain, on phage

molecular target: T1, recombinant human CD123-Fc; assay: phage ELISA, captured CD123-Fc
How it was run: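 Readout is the clone-averaged A450 ratio of target-Fc over IgG1-Fc wells, detected with HRP-conjugated anti-M13. Each Fc protein (5 nM) was captured on goat anti-human IgG1-Fc-coated plates. Phage were rescued with VCSM13 from BCMA-panning colonies and added at 5× dilution.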

Binder	ELISA_avg [ratio A450 target/IgG1-Fc]
B1	3.2
B2	5.3
B3	3.6
B4	3.6
B5	5.9
B6	6.4
B7	3.4
B8	3.7
B9	3.5
B10	3.2
B11	4.4
B12	3.5
B13	3.8
B14	4
B15	3.1
B16	5.8
B17	4.1
B18	3.6
B19	9.5
B20	6.8
B21	3.7

Binder	ELISA_avg [ratio A450 target/IgG1-Fc]
B22	8.2
B23	3.3
B24	4.1
B25	4
B26	3.4
B27	4.5
B28	7
B29	3.2
B30	3
B31	5.5
B32	9.4
B33	4.5
B34	3.9
B35	4
B36	6.5
B37	5.4
B38	3.2
B39	10
B40	4.5
B41	5.5
B42	3.6

Source: US20230125550A1 (ARCELLX, published 2023)
